Paper PMC8113886, “The Rid family member RutC of Escherichia coli is a 3-aminoacrylate deaminase” (The Journal of Biological Chemistry, 2021)

T1: RidA (Salmonella enterica, UniProt Q7CP78)
T1 construct: full-length RidA; purification and tag not described here
T1 sequence (Q7CP78 1-128): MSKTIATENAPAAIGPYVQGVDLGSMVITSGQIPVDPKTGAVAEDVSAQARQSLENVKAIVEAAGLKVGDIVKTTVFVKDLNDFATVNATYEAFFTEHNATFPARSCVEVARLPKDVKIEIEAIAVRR


Key:
[1] = biological target: T1, RidA; experiment: semicarbazone competition assay, absorbance at […] nm; format: biochemical; details: imine generated in situ by L-amino acid oxidase from 10 mM L-methionine; 10 uM RidA, 50 mM potassium pyrophosphate pH 8.7, 23 °C
[2] = substrate: NC=CC(=O)O; experiment: purified protein; format: biochemical, Escherichia coli; details: 3-AA generated in situ by 5 uM RutB, varied concentration is ureidoacrylate, not 3-AA, spontaneous deamination not subtracted, 3 uM RutC, 40 mM Tris-HCl pH 8.2, 23 °C

| Molecule | semicarbazone competition assay, absorbance at 248 nm [1] | Km [2] | Vmax [2] | kcat [2] |
| --- | --- | --- | --- | --- |
| CSCCC(=N)C(=O)O [imino derivative of methionine] | RidA showed activity primarily on the imino derivatives of methionine and leucine. | – | – | – |
| RutC (Escherichia coli K-12) (protein) MPKSVIIPAGSSAPLAPFVPGTLADGVVYVSGTLAFDQHNNVLFADDPKAQTRHVLETIRKVIETAGGTMADVTFNSIFITDWKNYAAINEIYAEFFPGDKPARFCIQCGLVKPDALVEIATIAHIAK | – | 9.1 ± 1.9 mM | 31.9 ± 3.9 nmoles of NADPH consumed min^-1 | 0.867 s⁻¹ |
